Drawing on patent US20250326807A1, “CALPROTECTIN BINDING PEPTIDES” (Buehlmann Laboratories AG, priority 2022, published 2025), this text covers Kd for 30 molecules.

A value given as a limit tells only on which side of the number the result lay.

Sequences and labels used below:
T1: Recombinantly expressed fused calprotectin (His6-linker-S100A9-linker-S100A8), product code B-RCAL, BÜHLMANN Laboratories AG (human), P06702
T1 chain: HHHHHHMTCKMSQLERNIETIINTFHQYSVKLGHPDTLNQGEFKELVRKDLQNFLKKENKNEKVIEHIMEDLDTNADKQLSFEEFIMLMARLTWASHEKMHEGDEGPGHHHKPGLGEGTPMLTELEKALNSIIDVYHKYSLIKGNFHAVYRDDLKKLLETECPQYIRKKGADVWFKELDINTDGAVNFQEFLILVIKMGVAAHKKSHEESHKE

The target in the first experiment is T1, Recombinantly expressed fused …. The experiment is described as follows: SPR. The conditions noted are these: modification not given.
Turning to RCPECVAFPMIQCHWYCG [F11 Ile], the Kd was > 10000 nM.

Turning to RCPECVAFPMAQCHWYCG [F11 L-Ala], the Kd is > 10000 nM.

As to RCPECVAIPMFQCHWYCG [F8 Ile], the Kd was > 10000 nM.

As for RCPECVAFPMFQCAWYCG [H14 L-Ala], the Kd is > 10000 nM.

Regarding RCPECVAAPMFQCHWYCG [F8 L-Ala], the dissociation constant Kd was > 10000 nM.

Turning to RCPECVAQPMFQCHWYCG [F8 Gln], the Kd was > 10000 nM.

RCPECVAEPMFQCHWYCG [F8 Glu]: the dissociation constant Kd is > 10000 nM.

With RCPECVAFPMFQCHWACG [Y16 L-Ala], the Kd is > 10000 nM.

As for RCPECVAFPMQQCHWYCG [F11 Gln], the Kd was > 10000 nM.

Take RCPECVAFPMEQCHWYCG [F11 Glu]: the Kd is > 10000 nM.

Turning to RCPECVAYPMFQCHWYCG [F8 Tyr], the Kd was > 10000 nM.

Consider RCPECVAFPMKQCHWYCG [F11 Lys], for which the dissociation constant (Kd) is > 10000 nM.

For another experiment the target is unchanged. Put plainly: fluorescence polarization. The conditions noted are these: modification not given.
As to RSPESVAFAMFQSHWYSG, the dissociation constant Kd amounted to 30 nM.

Take ASPESVAFPMFQSHWYSG: the Kd was determined as 32 nM.

RSPESVAFPMFQSHWYSA: the Kd was found to be 31 nM.

Consider RCPECVAFPMFQCHAYCG, for which the Kd was found to be 24 nM.

Regarding RCPECVAFPMFACHWYCG, the dissociation constant Kd was 27 nM.

Turning to RCPECVAFAMFQCHWYCG, the Kd worked out at 30 nM.

In the case of RCPACVAFPMFQCHWYCG, the Kd was determined as 26 nM.

In the case of RCPECVGFPMFQCHWYCG, the Kd turned out to be 29 nM.

With RSPESVAFPMFQSHAYSG, the Kd came to 24 nM.

As for RSPESAAFPMFQSHWYSG, the dissociation constant (Kd) is 39 nM.

Take RCPECAAFPMFQCHWYCG: the Kd was 39 nM.

ACPECVAFPMFQCHWYCG: the Kd was found to be 32 nM.

Turning to RSAESVAFPMFQSHWYSG, the equilibrium dissociation constant (Kd) worked out at 28 nM.

For the molecule RCAECVAFPMFQCHWYCG, the Kd was determined as 28 nM.

As to RSPESVAFPMFASHWYSG, the Kd worked out at 27 nM.

Take RSPASVAFPMFQSHWYSG: the Kd worked out at 26 nM.

Turning to RSPESVGFPMFQSHWYSG, the Kd was 29 nM.

On to RCPECVAFPMFQCHWYCA, for which the equilibrium dissociation constant (Kd) amounted to 31 nM.
